The results in this text go back to patent US20100189719A1 (published 2010).

Sequences and labels used below:
B4: murine VEGF (mVEGF) (ligand, mouse, UniProt Q00731-2 27-190, looked up)
chain: APTTEGEQKSHEVIKFMDVYQRSYCRPIETLVDIFQEYPDEIEYIFKPSCVPLMRCAGCCNDEALECVPTSESNITMQIMRIKPHQSQHIGEMSFLQHSRCECRPKKDRTKPENHCEPCSERRKHLFVQDPQTCKCSCKNTDSRCKARQLELNERTCRCDKPRR
notes: also called mouse VEGF

In assay [1] the target is B4. Nature of the assay: BIAcore or solution binding ELISA, Fab.
Assay [2] concerns the target T1, Flt-1 ECD fragment (Ig domain1-5) (Flt-1D1-5) (UniProt P17948 27-553, limits assumed).
T1 construct: domain: Flt-1 ECD fragment (Ig domain1-5); also called Flt-1 receptor
The experiment in a line: phage ELISA with wild type hVEGF phage.

For the next assay, the target named is T2, human VEGF-B (human, UniProt P49765-2 22-188, limits assumed).
T2 sequence (looked up): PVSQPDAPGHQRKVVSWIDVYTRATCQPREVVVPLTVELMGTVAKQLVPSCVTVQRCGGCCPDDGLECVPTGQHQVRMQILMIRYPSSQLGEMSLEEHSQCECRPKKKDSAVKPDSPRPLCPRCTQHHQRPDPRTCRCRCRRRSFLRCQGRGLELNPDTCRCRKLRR
Nature of the assay: direct ELISA on coated homolog (2 ug/ml) with increasing G6 Fab.

Assay [3] concerns the target T3, mouse placenta growth factor (PlGF-2) (mouse, UniProt P49764 19-158, limits assumed).
T3 construct: also called murine PlGF-2
T3 sequence (looked up): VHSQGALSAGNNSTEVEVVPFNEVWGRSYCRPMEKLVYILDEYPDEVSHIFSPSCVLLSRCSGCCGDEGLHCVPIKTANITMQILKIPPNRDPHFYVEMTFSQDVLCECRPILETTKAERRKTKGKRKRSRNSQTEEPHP
The description is as above.

The target of assay [4] is T4, human placenta growth factor (PlGF-2) (human, UniProt P49763-3 19-170, limits assumed).
T4 construct: also called human PlGF-2
T4 sequence (looked up): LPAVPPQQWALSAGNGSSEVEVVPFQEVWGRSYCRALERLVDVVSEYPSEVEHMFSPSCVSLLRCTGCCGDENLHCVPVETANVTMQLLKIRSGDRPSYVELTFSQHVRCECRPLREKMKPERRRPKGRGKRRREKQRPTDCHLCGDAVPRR
Described as above.

The target of another assay is T5, murine VEGF-D (mVEGF-D) (mouse, UniProt P97946 98-206, limits assumed).
T5 sequence (looked up): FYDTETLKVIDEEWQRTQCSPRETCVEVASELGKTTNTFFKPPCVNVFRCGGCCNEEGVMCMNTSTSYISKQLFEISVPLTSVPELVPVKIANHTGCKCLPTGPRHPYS
The description is as above.

Assay [5] has as its target B4. The experiment in a line: phage-blocking assay: receptor fragment at increasing concentration competes with phage clones for mVEGF-coated wells.
For assay [6], the target named is T6, full extracellular domain (ECD) of KDR (UniProt P35968 20-764, limits assumed).
T6 construct: extracellular domain; also called KDR ECD
T6 sequence (P35968 20-764 limits assumed): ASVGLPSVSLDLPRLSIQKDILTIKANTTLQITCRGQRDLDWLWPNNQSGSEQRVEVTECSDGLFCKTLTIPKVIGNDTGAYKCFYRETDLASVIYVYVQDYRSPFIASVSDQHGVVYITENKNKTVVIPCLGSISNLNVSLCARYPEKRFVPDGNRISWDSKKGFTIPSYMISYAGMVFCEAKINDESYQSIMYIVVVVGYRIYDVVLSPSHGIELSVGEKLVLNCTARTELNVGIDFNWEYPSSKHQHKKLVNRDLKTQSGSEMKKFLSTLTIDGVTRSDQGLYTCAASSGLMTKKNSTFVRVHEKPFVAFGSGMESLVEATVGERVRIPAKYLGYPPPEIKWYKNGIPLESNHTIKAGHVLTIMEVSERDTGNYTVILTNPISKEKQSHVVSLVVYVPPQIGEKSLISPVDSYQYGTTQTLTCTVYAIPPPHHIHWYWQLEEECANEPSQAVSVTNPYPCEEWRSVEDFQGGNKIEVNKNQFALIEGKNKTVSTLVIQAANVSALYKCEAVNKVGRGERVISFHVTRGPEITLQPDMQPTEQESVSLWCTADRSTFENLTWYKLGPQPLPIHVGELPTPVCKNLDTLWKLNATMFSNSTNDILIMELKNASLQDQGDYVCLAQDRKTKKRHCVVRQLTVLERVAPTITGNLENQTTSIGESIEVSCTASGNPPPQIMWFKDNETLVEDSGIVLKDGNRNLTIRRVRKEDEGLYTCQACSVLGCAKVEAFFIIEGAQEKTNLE
The description is as above.

T1 sequence (P17948 27-553 limits assumed): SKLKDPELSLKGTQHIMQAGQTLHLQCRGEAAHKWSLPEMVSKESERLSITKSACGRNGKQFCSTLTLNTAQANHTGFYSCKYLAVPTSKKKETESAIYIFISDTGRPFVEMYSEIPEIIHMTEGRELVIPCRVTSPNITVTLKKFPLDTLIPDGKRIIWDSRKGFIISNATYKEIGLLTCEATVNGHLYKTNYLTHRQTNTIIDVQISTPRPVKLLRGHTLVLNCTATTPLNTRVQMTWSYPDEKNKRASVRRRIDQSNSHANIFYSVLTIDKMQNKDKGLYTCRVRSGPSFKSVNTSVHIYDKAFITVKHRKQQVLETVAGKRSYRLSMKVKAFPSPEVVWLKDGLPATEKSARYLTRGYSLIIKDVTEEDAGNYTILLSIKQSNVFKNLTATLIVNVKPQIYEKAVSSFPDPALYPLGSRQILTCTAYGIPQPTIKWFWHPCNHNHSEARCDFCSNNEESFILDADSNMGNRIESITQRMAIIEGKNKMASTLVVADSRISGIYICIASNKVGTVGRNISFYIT

Consider Y0317 Fab, for which the affinity with murine VEGF (mVEGF) [1] amounted to 350 nM.

B1: hVEGF displayed on phage (hVEGF1-109, wild type) (ligand, human, UniProt P15692 207-315, looked up)
chain: APMAEGGGQNHHEVVKFMDVYQRSYCHPIETLVDIFQEYPDEIEYIFKPSCVPLMRCGGCCNDEGLECVPTEESNITMQIMRIKPHQGQHIGEMSFLQHNKCECRPKKD
notes: Phage fusion partner not described; also called hVEGF displaying phage; hVEGF-phage
Take B1: in assay [2], the binding result is “binds”.

B2: G6 Fab (Fab, V domains shown)
VH: EVQLVESGGGLVQPGGSLRLSCAASGFTISDYWIHWVRQAPGKGLEWVAGITPAGGYTYYADSVKGRFTISADTSKNTAYLQMNSLRAEDTAVYYCARFVFFLPYAMDYWGQGTLVTVSS
VL: DIQMTQSPSSLSASVGDRVTITCRASQDVSTAVAWYQQKPGKAPKLLIYSASFLYSGVPSRFSGSGSGTDFTLTISSLQPEDFATYYCQQSYTTPPTFGQGTKVEIKR
notes: Purified Fab from E. coli in most assays; also called Fab G6; FabG6
Take B2: the binding result (with human VEGF-B; in assay [3]; in assay [4]; with murine VEGF-D (mVEGF-D)) was “no binding” in each case.

B3: second domain of Flt-1 (Flt-1D2) (receptor, UniProt P17948 129-229, looked up)
chain: SDTGRPFVEMYSEIPEIIHMTEGRELVIPCRVTSPNITVTLKKFPLDTLIPDGKRIIWDSRKGFIISNATYKEIGLLTCEATVNGHLYKTNYLTHRQTNTI
notes: domain: second domain of Flt-1 (Flt-1D2)
Turning to B3, in the assay with murine VEGF (mVEGF) [5], the binding result was “binds”.

In the case of B4, the binding result in assay [6] is recorded as “binds”.
